Reference: patent publication EP1262190A1 (Takeda Chemical Industries, Ltd., dated 2001)
Where no end group is shown, it is not given here.

What was measured:
[1] = biological target: rat cerebellum-derived novel G protein-coupled receptor protein r0T7T022L (rat); test: cell-based or functional assay
human 0T7T022 receptor = human 0T7T022 receptor (human); test: cell-based or functional assay
Chain of human 0T7T022 receptor (human) (Q9GZQ6 whole entry): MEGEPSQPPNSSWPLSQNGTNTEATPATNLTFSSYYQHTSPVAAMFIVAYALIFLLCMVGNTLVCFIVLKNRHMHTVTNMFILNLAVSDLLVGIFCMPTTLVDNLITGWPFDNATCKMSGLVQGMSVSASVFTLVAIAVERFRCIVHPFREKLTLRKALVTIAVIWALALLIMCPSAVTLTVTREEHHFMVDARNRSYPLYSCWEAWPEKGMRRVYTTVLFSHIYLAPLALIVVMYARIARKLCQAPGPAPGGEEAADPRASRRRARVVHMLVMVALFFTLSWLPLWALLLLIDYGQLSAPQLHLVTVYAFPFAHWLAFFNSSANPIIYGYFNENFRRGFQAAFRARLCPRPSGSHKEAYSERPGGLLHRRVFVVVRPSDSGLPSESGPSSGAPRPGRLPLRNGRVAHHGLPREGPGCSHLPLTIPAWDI

Binder	IC50 of inhibiting the cAMP production (forskolin-stimulated) [1] [nM]	ED50, inhibition of the cAMP level increased by forskolin (human 0T7T022 receptor) [nM]
MPHSFANLPLRF-NH2 [peptide MPHSFANLPLRFamide (Met-Pro-His-Ser-Phe-Ala-Asn-Leu-Pro-Leu-Arg-Phe-NH2)]	0.5	4.5
PQRF-NH2 [PQRFamide (peptide shown by Pro-Gln-Arg-Phe-NH2)]		≥ 1000
LPLRF-NH2 [LPLRFamide (peptide shown by Leu-Pro-Leu-Arg-Phe-NH2)]		36
NPFF [NPFF (peptide shown by Asn-Pro-Phe-Phe)]		140
